In doi:10.1101/2023.03.06.531428 (bioRxiv, 2023):

B1: ADAMTS-7-FLAG (enzyme)
chain: APGPAPGRATEGRAALDIVHPVRVDAGGSFLSYELWPRALRKRDVSVRRDAPAFYELQYRGRELRFNLTANQHLLAPGFVSETRRRGGLGRAHIRAHTPACHLLGEVQDPELEGGLAAISACDGLKGVFQLSNEDYFIEPLDSAPARPGHAQPHVVYKRQAPERLAQRGDSSAPSTCGVQVYPELESRRERWEQRQQWRRPRLRRLHQRSVSKEKWVETLVVADAKMVEYHGQPQVESYVLTIMNMVAGLFHDPSIGNPIHITIVRLVLLEDEEEDLKITHHADNTLKSFCKWQKSINMKGDAHPLHHDTAILLTRKDLCAAMNRPCETLGLSHVAGMCQPHRSCSINEDTGLPLAFTVAHELGHSFGIQHDGSGNDCEPVGKRPFIMSPQLLYDAAPLTWSRCSRQYITRFLDRGWGLCLDDPPAKDIIDFPSVPPGVLYDVSHQCRLQYGAYSAFCEDMDNVCHTLWCSVGTTCHSKLDAAVDGTRCGENKWCLSGECVPVGFRPEAVDGGWSGWSAWSICSRSCGMGVQSAERQCTQPTPKYKGRYCVGERKRFRLCNLQACPAGRPSFRHVQCSHFDAMLYKGQLHTWVPVVNDVNPCELHCRPANEYFAEKLRDAVVDGTPCYQVRASRDLCINGICKNVGCDFEIDSGAMEDRCGVCHGNGSTCHTVSGTFEEAEGLGYVDVGLIPAGAREIRIQEVAEAANFLALRSEDPEKYFLNGGWTIQWNGDYQVAGTTFTYARRGNWENLTSPGPTKEPVWIQLLFQESNPGVHYEYTIHREAGGHDEVPPPVFSWHYGPWTKCTVTCGRGVQRQNVYCLERQAGPVDEEHCDPLGRPDDQQRKCSEQPCPARWWAGEWQLCSSSCGPGGLSRRAVLCIRSVGLDEQSALEPPACEHLPRPPTETPCNRHVPCPATWAVGNWSQCSVTCGEGTQRRNVLCTNDTGVPCDEAQQPASEVTCSLPLCRWPLGTLGPEGSGSGSSSHELFNEADFIPHHLAPRPSPASSPKPGTMGNAIEEEAPELDLPGPVFVDDFYYDYNFINFHEDLSYGPSEEPDLDLAGTGDRTPPPHSHPAAPSTGSPVPATEPPAAKEEGVLGPWSPSPWPSQAGRSPPPPSEQTPGNPLINFLPEEDTPIGAPDLGLPSLSWPRVSTDGLQTPATPESQNDFPVGKDSQSQLPPPWRDRTNEVFKDDEEPKGRGAPHLPPRPSSTLPPLSPVGSTHSSPSPDVAELWTGGTVAWEPALEGGLGPVDSELWPTVGVASLLPPPIAPLPEMKVRDSSLEPGTPSFPTPGPGSWDLQTVAVWGTFLPTTLTGLGHMPEPALNPGPKGQPESLSPEVPLSSRLLSTPAWDSPANSHRVPETQPLAPSLAEAGPPADPLVVRNAGWQAGNWSECSTTCGLGAVWRPVRCSSGRDEDCAPAGRPQPARRCHLRPCATWHSGNWSKCSRSCGGGSSVRDVQCVDTRDLRPLRPFHCQPGPAKPPAHRPCGAQPCLSWYTSSWRECSEACGGGEQQRLVTCPEPGLCEEALRPNTTRPCNTHPCTQWVVGPWGQCSGPCGGGVQRRLVKCVNTQTGLPEEDSDQCGHEAWPESSRPCGTEDCEPVEPPRCERDRLSFGFCETLRLLGRCQLPTIRTQCCRSCSPPSHGAPSRGHQRVARR

Columns and labels:
Test in all cases: AlphaScreen or HTRF
[1] = target: B1
[2] = target: T1, TIMP-1-HA (human, UniProt P01033 24-207)
[3] = target: T1, TIMP-1-HA; remark: listed apart in the source

T1 sequence (P01033 24-207): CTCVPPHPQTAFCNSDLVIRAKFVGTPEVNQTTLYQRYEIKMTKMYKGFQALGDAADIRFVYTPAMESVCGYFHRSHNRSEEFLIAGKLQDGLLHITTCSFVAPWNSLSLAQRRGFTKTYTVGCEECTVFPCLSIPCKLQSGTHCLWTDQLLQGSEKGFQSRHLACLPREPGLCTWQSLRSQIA

Row | Binder | FRET ratio (665/620) of ADAMTS-7-FLAG and TIMP-1-HA with 400 ng untagged TIMP-1 [1] | FRET ratio (665/620) of ADAMTS-7-FLAG and TIMP-1-HA with 800 ng untagged TIMP-1 [1] | FRET ratio (665/620) [2] | FRET ratio (665/620) with 0 ng untagged TIMP-1 [3]
1 | untagged, recombinant TIMP-1 (natural protein) not shown | 4420 665/620 ratio | 3570 665/620 ratio |  | 
2 | B1 |  |  | 5480 665/620 ratio | 4950 665/620 ratio
